Measured values reported in patent US20150175708A1 (Eli Lilly, published 2015).

How the values were obtained:
[1] = target: EGFR on the cell surface of human tumor cell lines (human, UniProt P00533 25-1210); assay: cell-based or functional assay
[2] = target: T1, MET on the cell surface of human tumor cell lines (human, UniProt P08581 25-1390); assay: cell-based or functional assay
[3] = target: T2, human EGFR extracellular domain (EGFR-ECD) (human, UniProt P00533 25-645); assay: SPR (Biacore), antibody captured on protein A chip, EGFR-ECD in solution, 25 C, 1:1 model
T2 construct: extracellular domain; also called human EGFR-ECD

[4] = target: extracellular domain of human MET (MET-ECD) (human, UniProt P08581 25-932); assay: SPR (Biacore), antibody captured on protein A chip, MET-ECD in solution, 25 C, 1:1 model
Sequence of extracellular domain of human MET (MET-ECD) (P08581 25-932): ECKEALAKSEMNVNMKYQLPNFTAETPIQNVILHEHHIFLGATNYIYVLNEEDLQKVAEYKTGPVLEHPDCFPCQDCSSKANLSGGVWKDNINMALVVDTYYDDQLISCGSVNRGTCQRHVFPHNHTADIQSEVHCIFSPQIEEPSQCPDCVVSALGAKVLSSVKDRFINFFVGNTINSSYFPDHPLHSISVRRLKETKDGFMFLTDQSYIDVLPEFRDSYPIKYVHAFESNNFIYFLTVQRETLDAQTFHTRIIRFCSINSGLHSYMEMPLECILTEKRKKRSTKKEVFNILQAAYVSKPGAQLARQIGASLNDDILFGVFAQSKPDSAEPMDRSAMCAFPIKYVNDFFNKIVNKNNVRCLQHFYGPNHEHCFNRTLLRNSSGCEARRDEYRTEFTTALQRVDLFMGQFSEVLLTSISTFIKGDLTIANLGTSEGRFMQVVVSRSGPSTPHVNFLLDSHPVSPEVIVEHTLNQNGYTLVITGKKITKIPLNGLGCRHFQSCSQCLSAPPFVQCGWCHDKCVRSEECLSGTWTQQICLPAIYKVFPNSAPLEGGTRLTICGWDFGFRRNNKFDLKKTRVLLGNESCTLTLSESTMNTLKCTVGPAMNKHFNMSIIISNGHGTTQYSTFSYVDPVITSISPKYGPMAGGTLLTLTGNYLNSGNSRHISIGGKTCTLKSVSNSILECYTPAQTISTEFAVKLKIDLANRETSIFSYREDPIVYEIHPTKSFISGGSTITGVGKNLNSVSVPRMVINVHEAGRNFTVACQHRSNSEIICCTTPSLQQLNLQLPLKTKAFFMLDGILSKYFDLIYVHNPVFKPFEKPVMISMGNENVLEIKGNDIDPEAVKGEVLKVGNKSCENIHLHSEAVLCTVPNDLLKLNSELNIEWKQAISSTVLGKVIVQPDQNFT

[5] = target: T1, MET on the cell surface of human tumor …; assay: cell-based or functional assay; remark: listed apart in the source

T1 sequence (P08581 25-1390): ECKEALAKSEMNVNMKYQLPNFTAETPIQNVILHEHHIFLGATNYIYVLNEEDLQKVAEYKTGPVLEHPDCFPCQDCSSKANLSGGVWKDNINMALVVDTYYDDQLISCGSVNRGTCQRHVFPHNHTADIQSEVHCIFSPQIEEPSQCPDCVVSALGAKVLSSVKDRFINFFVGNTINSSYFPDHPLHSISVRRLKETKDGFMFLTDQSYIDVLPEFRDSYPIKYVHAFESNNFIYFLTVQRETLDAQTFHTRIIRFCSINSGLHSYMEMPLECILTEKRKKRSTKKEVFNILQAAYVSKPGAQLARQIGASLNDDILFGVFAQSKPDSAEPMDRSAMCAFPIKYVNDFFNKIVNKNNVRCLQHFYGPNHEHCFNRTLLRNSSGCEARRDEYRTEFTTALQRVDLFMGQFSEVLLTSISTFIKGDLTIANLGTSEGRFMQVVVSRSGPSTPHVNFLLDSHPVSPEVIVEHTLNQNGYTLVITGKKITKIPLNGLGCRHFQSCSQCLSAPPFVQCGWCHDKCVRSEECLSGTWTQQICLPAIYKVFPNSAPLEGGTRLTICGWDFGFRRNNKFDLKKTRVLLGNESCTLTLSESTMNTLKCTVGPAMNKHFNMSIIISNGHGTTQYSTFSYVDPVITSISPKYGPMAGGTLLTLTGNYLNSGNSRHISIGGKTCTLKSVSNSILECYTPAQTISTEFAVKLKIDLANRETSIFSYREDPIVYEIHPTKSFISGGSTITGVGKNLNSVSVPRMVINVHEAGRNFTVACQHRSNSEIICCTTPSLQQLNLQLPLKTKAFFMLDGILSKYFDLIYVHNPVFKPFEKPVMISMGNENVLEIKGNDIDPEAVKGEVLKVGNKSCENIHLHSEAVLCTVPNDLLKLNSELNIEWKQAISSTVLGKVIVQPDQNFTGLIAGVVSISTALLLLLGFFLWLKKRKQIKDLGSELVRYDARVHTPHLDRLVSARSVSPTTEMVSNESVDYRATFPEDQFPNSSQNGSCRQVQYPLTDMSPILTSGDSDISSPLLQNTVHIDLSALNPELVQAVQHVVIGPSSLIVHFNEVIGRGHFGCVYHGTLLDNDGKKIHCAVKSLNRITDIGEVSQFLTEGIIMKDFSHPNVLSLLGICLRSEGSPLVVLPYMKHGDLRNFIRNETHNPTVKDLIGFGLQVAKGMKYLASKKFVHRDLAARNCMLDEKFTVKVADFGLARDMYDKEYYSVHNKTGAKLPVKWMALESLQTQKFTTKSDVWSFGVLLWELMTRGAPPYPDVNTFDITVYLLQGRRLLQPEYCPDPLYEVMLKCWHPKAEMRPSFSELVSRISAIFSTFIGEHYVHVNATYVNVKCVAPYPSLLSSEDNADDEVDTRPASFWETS

Kd [3]	koff [3]	kon [3]	Kd [4]	koff [4]	kon [4]	Binder	average % of cell viability, H1666 cells, antibody 0.02 nM [1]	average % of cell viability, H1666 cells, antibody 0.05 nM [1]	average % of cell viability, H1666 cells, antibody 0.14 nM [1]	average % of cell viability, H1666 cells, antibody 0.41 nM [1]	average % of cell viability, H1666 cells, antibody 1.23 nM [1]	average % of cell viability, H1666 cells, antibody 3.70 nM [1]	average % of cell viability, H1666 cells, antibody 11.11 nM [1]	average % of cell viability, H1666 cells, antibody 33.33 nM [1]	average % of cell viability, H1666 cells, antibody 100 nM [1]	average % of cell viability (CellTiter-Glo), H596 cells + 50 ng/mL HGF, antibody 0.4 nM [5]	average % of cell viability (CellTiter-Glo), H596 cells + 50 ng/mL HGF, antibody 1.2 nM [5]	average % of cell viability (CellTiter-Glo), H596 cells + 50 ng/mL HGF, antibody 3.7 nM [5]	average % of cell viability (CellTiter-Glo), H596 cells + 50 ng/mL HGF, antibody 11.1 nM [5]	average % of cell viability (CellTiter-Glo), H596 cells + 50 ng/mL HGF, antibody 33.3 nM [5]	further results
0.19 nM	0.00075 s⁻¹	4e+06 M⁻¹ s⁻¹	0.84 nM	6.3e-05 s⁻¹	75000 M⁻¹ s⁻¹	anti-MET/EGFR multifunctional antibody NH-YK (bispecific antibody, human IgG4 S228P, kappa, F234A L235A, Tetravalent: anti-MET C8-H241 human IgG4 with an anti-EGFR YK scFv fused by a glycine-rich linker to the N-terminus of each heavy chain) heavy: not shown light: DIQMTQSPSSLSASVGDRVTITCSVSSSVSSIYLHWYQQKPGKAPKLLIYSTSNLASGVPSRFSGSGSGTDFTLTISSLQPEDFATYYCQVYSGYPLTFGGGTKVEIKRTVAAPSVFIFPPSDEQLKSGTASVVCLLNNFYPREAKVQWKVDNALQSGNSQESVTEQDSKDSTYSLSSTLTLSKADYEKHKVYACEVTHQGLSSPVTKSFNRGEC	106%	105%	87.2%	65.5%	45.6%	36.9%	31.9%	27.9%	26.4%	113%	108%	104%	107%	101%	% cell surface MET remaining, H441 cells, 50 nM antibody overnight, FACS [2]: 58%; AVG of MFI (staining of cell surface MET), H441 cells, 50 nM antibody overnight, FACS [2]: 44.9 MFI; average % of cell viability (CellTiter-Glo), H596 cells + 50 ng/mL HGF, antibody 100 nM [5]: 102%
0.32 nM	0.00018 s⁻¹	570000 M⁻¹ s⁻¹	1.15 nM	0.000109 s⁻¹	95000 M⁻¹ s⁻¹	anti-MET/EGFR multifunctional antibody H9 (bispecific antibody, human IgG4 S228P, kappa, F234A L235A, Tetravalent: anti-MET C8-H241 human IgG4 with an anti-EGFR H9 scFv fused to the heavy chain C-terminus) heavy: not shown light: DIQMTQSPSSLSASVGDRVTITCSVSSSVSSIYLHWYQQKPGKAPKLLIYSTSNLASGVPSRFSGSGSGTDFTLTISSLQPEDFATYYCQVYSGYPLTFGGGTKVEIKRTVAAPSVFIFPPSDEQLKSGTASVVCLLNNFYPREAKVQWKVDNALQSGNSQESVTEQDSKDSTYSLSSTLTLSKADYEKHKVYACEVTHQGLSSPVTKSFNRGEC															
0.44 nM	0.00057 s⁻¹	1.3e+06 M⁻¹ s⁻¹	0.26 nM	3.3e-05 s⁻¹	126000 M⁻¹ s⁻¹	anti-MET/EGFR multifunctional antibody YK (bispecific antibody, human IgG4 S228P, kappa, F234A L235A, Tetravalent: anti-MET C8-H241 human IgG4 with an anti-EGFR YK scFv fused to the heavy chain C-terminus) heavy: not shown light: DIQMTQSPSSLSASVGDRVTITCSVSSSVSSIYLHWYQQKPGKAPKLLIYSTSNLASGVPSRFSGSGSGTDFTLTISSLQPEDFATYYCQVYSGYPLTFGGGTKVEIKRTVAAPSVFIFPPSDEQLKSGTASVVCLLNNFYPREAKVQWKVDNALQSGNSQESVTEQDSKDSTYSLSSTLTLSKADYEKHKVYACEVTHQGLSSPVTKSFNRGEC															
0.1 nM	0.00018 s⁻¹	1.8e+06 M⁻¹ s⁻¹	0.75 nM	7.9e-05 s⁻¹	105000 M⁻¹ s⁻¹	anti-MET/EGFR multifunctional antibody NH-H9 (bispecific antibody, human IgG4 S228P, kappa, F234A L235A, Tetravalent: anti-MET C8-H241 human IgG4 with an anti-EGFR H9 scFv fused to the N-terminus of each heavy chain) heavy: not shown light: DIQMTQSPSSLSASVGDRVTITCSVSSSVSSIYLHWYQQKPGKAPKLLIYSTSNLASGVPSRFSGSGSGTDFTLTISSLQPEDFATYYCQVYSGYPLTFGGGTKVEIKRTVAAPSVFIFPPSDEQLKSGTASVVCLLNNFYPREAKVQWKVDNALQSGNSQESVTEQDSKDSTYSLSSTLTLSKADYEKHKVYACEVTHQGLSSPVTKSFNRGEC	105%	100%	77.8%	52.9%	38.6%	31.6%	26.6%	24.1%	23.1%	107%	102%	103%	105%	102%	average % of cell viability (CellTiter-Glo), H596 cells + 50 ng/mL HGF, antibody 100 nM [5]: 102%
